According to IntAct's records for PubMed 29039417:

B1: BBSome complex member BBS5 (Homo sapiens), Q8N3I7 (parent)
chain: MSVLDALWEDRDVRFDLSAQQMKTRPGEVLIDCLDSIEDTKGNNGDRGRLLVTNLRILWHSLALSRVNVSVGYNCILNITTRTANSKLRGQTEALYILTKCNSTRFEFIFTNLVPGSPRLFTSVMAVHRAYETSKMYRDFKLRSALIQNKQLRLLPQEHVYDKINGVWNLSSDQGNLGTFFITNVRIVWHANMNDSFNVSIPYLQIRSIKIRDSKFGLALVIESSQQSGGYVLGFKIDPVEKLQESVKEINSLHKVYSASPIFGVDYEMEEKPQPLEALTVEQIQDDVEIDSDGHTDAFVAYFADGNKQQDREPVFSEELGLAIEKLKDGFTLQGLWEVMS
partner: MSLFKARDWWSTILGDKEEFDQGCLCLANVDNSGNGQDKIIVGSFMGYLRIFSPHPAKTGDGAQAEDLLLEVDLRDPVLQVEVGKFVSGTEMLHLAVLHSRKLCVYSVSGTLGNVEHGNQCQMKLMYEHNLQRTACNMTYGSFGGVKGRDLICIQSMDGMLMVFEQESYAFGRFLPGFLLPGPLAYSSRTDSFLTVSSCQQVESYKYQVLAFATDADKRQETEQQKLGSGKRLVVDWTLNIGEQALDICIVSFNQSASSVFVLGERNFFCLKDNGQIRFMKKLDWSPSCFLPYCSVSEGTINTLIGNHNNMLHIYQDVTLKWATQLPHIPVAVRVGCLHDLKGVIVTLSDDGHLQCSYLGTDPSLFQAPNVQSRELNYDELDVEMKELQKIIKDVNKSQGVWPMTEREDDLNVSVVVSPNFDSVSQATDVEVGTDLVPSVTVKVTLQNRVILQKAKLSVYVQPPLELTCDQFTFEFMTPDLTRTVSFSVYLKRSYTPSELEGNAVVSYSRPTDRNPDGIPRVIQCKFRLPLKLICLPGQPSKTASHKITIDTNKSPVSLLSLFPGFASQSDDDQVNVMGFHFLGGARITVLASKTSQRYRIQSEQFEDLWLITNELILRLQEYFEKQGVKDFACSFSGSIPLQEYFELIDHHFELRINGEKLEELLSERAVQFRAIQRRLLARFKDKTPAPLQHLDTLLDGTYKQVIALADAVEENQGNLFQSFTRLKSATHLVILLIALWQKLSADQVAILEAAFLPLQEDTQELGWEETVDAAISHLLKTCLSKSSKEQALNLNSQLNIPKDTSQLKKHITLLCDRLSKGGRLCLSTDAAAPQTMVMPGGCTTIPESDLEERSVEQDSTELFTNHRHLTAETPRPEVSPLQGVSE

Variants of: B1
Conditions: with pthb1_human BBS9, Q3SYG4

Variant	effect of a mutation on the interaction
V52K	disrupting interaction strength
V52A	with no effect
V52E	with no effect
K87A	with no effect
K87E	with no effect
I76T	disrupting interaction strength
I76A	with no effect
I76E	disrupting interaction strength
I76K	with no effect
Y73A	with no effect
Y73K	with no effect
Y73E	with no effect
W59K	with no effect
W59E	with no effect
W59A	with no effect
L62E	with no effect
L62A	with no effect
L62K	with no effect
L88K	with no effect
L88E	with no effect
L88A	with no effect
V71A	with no effect
V71K	with no effect
V71E	with no effect
R56K	disrupting interaction strength
R56E	disrupting interaction strength

Variant	effect of a mutation on the interaction
R56G	disrupting interaction strength
R56A	disrupting interaction strength
R82E	with no effect
R82K	with no effect
R82A	with no effect
F108A	with no effect
F108K	with no effect
F108E	disrupting interaction strength
Y96A	with no effect
Y96K	with no effect
Y96E	with no effect
V69K	with no effect
V69A	with no effect
V69E	with no effect
N102E	with no effect
N102A	with no effect
N102K	with no effect
N78E	with no effect
N78A	with no effect
N78K	with no effect
S70K	with no effect
S70E	with no effect
S70A	with no effect
T92E	with no effect
T92A	with no effect
T92K	with no effect

Variant	effect of a mutation on the interaction
A84E	with no effect
A84K	with no effect
R89K	with no effect
R89E	with no effect
R89A	with no effect
L51K	with no effect
L55E	disrupting interaction strength
L55K	with no effect
L55A	disrupting interaction strength
L55F	disrupting interaction strength
L98A	with no effect
L98E	with no effect
L98K	with no effect
I109A	with no effect
I109K	with no effect
I109E	with no effect
F110A	with no effect
I97E	with no effect
I97A	with no effect
I97K	disrupting interaction strength
T53A	with no effect
T53E	with no effect
T53K	with no effect
L95A	with no effect
L95E	disrupting interaction strength
L95K	with no effect

Variant	effect of a mutation on the interaction
H60E	with no effect
H60K	with no effect
H60A	with no effect
T99E	disrupting interaction strength
T99A	with no effect
T99K	with no effect
G90E	with no effect
G90A	with no effect
G90K	with no effect
S65K	with no effect
S65A	with no effect
S65E	with no effect
T81K	with no effect
T81A	with no effect
T81E	with no effect
N54E	disrupting interaction strength
N54A	with no effect
N54K	with no effect
R105A	with no effect
R105E	with no effect
R105K	with no effect
N74K	with no effect
N74A	with no effect
N74E	with no effect
K100E	with no effect
K100A	with no effect

Variant	effect of a mutation on the interaction
C101A	with no effect
C101K	with no effect
C101E	with no effect
R66A	with no effect
R66E	with no effect
R66K	with no effect
L77K	with no effect
L77A	with no effect
L77E	with no effect
S61F	disrupting interaction strength
S61A	with no effect
S61K	with no effect
S61E	with no effect
N85A	with no effect
N85E	with no effect
N85K	with no effect
I79A	with no effect
I79E	with no effect
I79K	with no effect
F106K	with no effect
F106E	with no effect
F106A	with no effect
L64A	with no effect
L64E	with no effect
L64K	with no effect
A63E	with no effect

Variant	effect of a mutation on the interaction
A63K	with no effect
L58E	with no effect
L58K	disrupting interaction strength
L58A	with no effect
S103E	with no effect
S103A	with no effect
S103K	with no effect
C75E	with no effect
C75K	with no effect
C75A	with no effect
T83K	with no effect
T83A	disrupting interaction strength
T83E	with no effect
A94K	with no effect
A94E	with no effect
E107K	with no effect
E107A	with no effect
V67E	with no effect
V67A	with no effect
V67K	with no effect
I57K	with no effect
I57E	with no effect
I57A	with no effect
N68A	disrupting interaction strength
N68E	with no effect
N68K	with no effect

Variant	effect of a mutation on the interaction
E93A	with no effect
E93K	with no effect
Q91K	with no effect
Q91E	with no effect
Q91A	with no effect
T80A	disrupting interaction strength
T80K	with no effect
T80E	with no effect
T80I	disrupting interaction strength
G72A	with no effect
G72S	disrupting interaction strength
G72E	with no effect
G72K	with no effect
T104E	with no effect
T104K	with no effect
T104I	disrupting interaction strength
T104A	with no effect
S86E	with no effect
S86A	with no effect
S86K	with no effect
